What all share (experiment): BLI
In general terms: Biolayer interferometry detects binding as a change in optical thickness at a sensor tip.

Assay [1] deals with T1, monomeric human Fc-fused SARS-CoV-2_RBD-SD1 (SARS-CoV-2).
In assay [2] the target is T1, monomeric human Fc-fused …. This is another data set of the same source.
Assay [3] concerns the target T2, Mouse IgG1 Fc-fused SARS-CoV-2 RBD (SARS-CoV-2, UniProt P0DTC2).
Assay [4] has as its target T2, Mouse IgG1 Fc-fused SARS-CoV-2 RBD. This is another data set of the same source.

Changes are numbered by the printed parent chain.

B1: humVHH (VHH)
VHH: EVQLVESGGGLVQPGGSLRLSCAASGRTFSEYAMGWFRQAPGKEREFVATISWSGGSTYYTDSVKGRFTISRDNAKNTVYLQMNSLRPEDTAVYYCAAAGLGTVVSEWDYDYDYWGQGTLVTVSS
The term Kd denotes a measure of binding affinity in units of concentration. Low values mean higher affinity, high ones lower affinity. For orientation: koff means the rate constant with which the complex falls apart. Read a high koff as fast dissociation. In turn, B1 came in with a Kd in assay [1] of 63 nM. For the same molecule, the koff in assay [2] was 0.088 s⁻¹.

B2: humVHH_S56A/LALAPG-Fc (Fc fusion)
chain: B1 VHH with S57A
B2 had a koff in assay [3] of 8.16e-05 s⁻¹. For the same molecule, the Kd in assay [4] was 0.0477 nM.

B3: humVHH_S56A (VHH)
VHH: B1 VHH with S57A
In the case of B3, the Kd in assay [1] is 8.3 nM. In addition, the koff in assay [2] was found to be 0.023 s⁻¹.
